Test results from the Immune Epitope Database (IEDB).
Values belong to the sequence of their own block, whether it stands above or below them.

Experiments:
HLA-C*07:02 = assay: IEDB peptide-MHC binding, purified MHC/direct/fluorescence; filed as Kd, often an IC50 or EC50 that approximates it; ≥ and ≤ were set here for values at or beyond the usual limits of such assays; conditions: source organism: Homo sapiens
HLA-A*01:01 [1] = assay: IEDB peptide-MHC binding, purified MHC/competitive/fluorescence; filed as Kd, often an IC50 or EC50 that approximates it; ≥ and ≤ were set here for values at or beyond the usual limits of such assays
HLA-A*80:01 = assay: as above; conditions: source organism: Homo sapiens
HLA-A*29:02 = assay: as above; conditions: source organism: Homo sapiens
HLA-A*24:02 = assay: as above
HLA-A*02:01 [2] = assay: as above
HLA-B*15:01 [3] = assay: IEDB peptide-MHC binding, purified MHC/direct/fluorescence; filed as Kd, often an IC50 or EC50 that approximates it; ≥ and ≤ were set here for values at or beyond the usual limits of such assays; conditions: source organism: Mycobacterium tuberculosis
HLA-B*15:17 = assay: as above
HLA-A*69:01 [4] = assay: as above; conditions: source organism: Mycobacterium tuberculosis
HLA-A*01:01 [5] = assay: as above
HLA-B*27:05 [6] = assay: as above
HLA-A*11:01 [7] = assay: as above
HLA-B*18:01 [8] = assay: as above; conditions: source organism: Mycobacterium tuberculosis
HLA-B*38:01 = assay: as above
HLA-B*48:01 = assay: as above
HLA-B*58:01 [9] = assay: as above
HLA-B*46:01 = assay: as above
HLA-B*40:01 [10] = assay: as above
HLA-B*57:01 = assay: as above
HLA-A*31:01 [11] = assay: as above
HLA-B*51:01 = assay: as above; conditions: source organism: Mycobacterium tuberculosis
HLA-A*03:01 [12] = assay: as above
HLA-A*02:01 [13] = assay: as above
HLA-B*39:01 = assay: IEDB peptide-MHC binding, purified MHC/competitive/fluorescence; filed as Kd, often an IC50 or EC50 that approximates it; ≥ and ≤ were set here for values at or beyond the usual limits of such assays; conditions: source organism: Mycobacterium tuberculosis variant bovis BCG str. Pasteur 1173P2
HLA-B*08:01 = assay: as above
HLA-A*26:01 [14] = assay: IEDB peptide-MHC binding, purified MHC/direct/fluorescence; filed as Kd, often an IC50 or EC50 that approximates it; ≥ and ≤ were set here for values at or beyond the usual limits of such assays; conditions: source organism: Salmonella enterica subsp. enterica serovar Typhimurium str. LT2
HLA-B*15:09 = assay: as above; conditions: source organism: Salmonella enterica subsp. enterica serovar Typhimurium str. LT2
HLA-B*08:02 = assay: as above; conditions: source organism: Salmonella enterica subsp. enterica serovar Typhimurium str. LT2
HLA-A*26:02 = assay: as above; conditions: source organism: Salmonella enterica subsp. enterica serovar Typhimurium str. LT2
HLA-B*15:01 [15] = assay: IEDB peptide-MHC binding, purified MHC/competitive/fluorescence; filed as Kd, often an IC50 or EC50 that approximates it; ≥ and ≤ were set here for values at or beyond the usual limits of such assays
HLA-A*69:01 [16] = assay: as above
HLA-B*40:13 = assay: as above; conditions: source organism: Shigella flexneri 5 str. 8401
HLA-B*15:42 = assay: as above; conditions: source organism: Shigella flexneri 5 str. 8401
HLA-B*83:01 = assay: as above; conditions: source organism: Shigella flexneri 5 str. 8401
HLA-A*68:23 = assay: as above; conditions: source organism: Shigella flexneri 5 str. 8401
HLA-B*40:01 [17] = assay: as above
HLA-A*32:15 = assay: as above; conditions: source organism: Shigella flexneri 5 str. 8401
HLA-B*45:06 = assay: as above; conditions: source organism: Shigella flexneri 5 str. 8401
HLA-A*26:01 [18] = assay: as above; conditions: source organism: Acinetobacter baumannii
HLA-B*27:05 [19] = assay: as above; conditions: source organism: Acinetobacter baumannii
HLA-A*11:01 [20] = assay: as above; conditions: source organism: Acinetobacter baumannii
HLA-B*18:01 [21] = assay: as above; conditions: source organism: Acinetobacter baumannii
HLA-B*35:01 = assay: as above; conditions: source organism: Acinetobacter baumannii
HLA-B*07:02 = assay: as above; conditions: source organism: Acinetobacter baumannii
HLA-B*58:01 [22] = assay: as above; conditions: source organism: Acinetobacter baumannii
HLA-A*31:01 [23] = assay: as above; conditions: source organism: Acinetobacter baumannii
HLA-A*03:01 [24] = assay: as above; conditions: source organism: Acinetobacter baumannii
[25] = source organism: Salmonella enterica subsp. enterica serovar Typhi
[26] = source organism: Mycobacterium tuberculosis
[27] = source organism: Salmonella enterica
[28] = source organism: Acinetobacter baumannii

Sequence: YYSNKAYQY
- Kd (HLA-C*07:02): 0.15 µM
- Kd (HLA-A*01:01 [1]; source organism: Homo sapiens): ≥ 20 µM
- Kd (HLA-A*80:01): 0.373 µM
- Kd (HLA-A*29:02): ≤ 0.0001 µM

Sequence: TLMFGFFGF
- Kd (HLA-A*24:02; [25]): ≥ 5 µM
- Kd (HLA-A*02:01 [2]; [25]): 4 µM

Sequence: RPPMVTSGL
- Kd (HLA-B*15:01 [3]): ≥ 20 µM
- Kd (HLA-B*15:17; [26]): ≥ 20 µM
- Kd (HLA-A*69:01 [4]): ≥ 20 µM
- Kd (HLA-A*01:01 [5]; [26]): ≥ 20 µM
- Kd (HLA-B*27:05 [6]; [26]): ≥ 20 µM
- Kd (HLA-A*11:01 [7]; [26]): ≥ 20 µM
- Kd (HLA-B*18:01 [8]): ≥ 20 µM
- Kd (HLA-B*38:01; source organism: Mycobacterium tuberculosis str. Haarlem): ≥ 20 µM
- Kd (HLA-B*48:01; [26]): ≥ 20 µM
- Kd (HLA-B*58:01 [9]; [26]): ≥ 20 µM
- Kd (HLA-B*46:01; [26]): ≥ 20 µM
- Kd (HLA-B*40:01 [10]; [26]): ≥ 20 µM
- Kd (HLA-B*57:01; [26]): ≥ 20 µM
- Kd (HLA-A*31:01 [11]; [26]): ≥ 20 µM
- Kd (HLA-B*51:01): ≥ 20 µM
- Kd (HLA-A*03:01 [12]; [26]): ≥ 20 µM
- Kd (HLA-A*02:01 [13]; [26]): ≥ 20 µM
- Kd (HLA-B*39:01): ≥ 20 µM
- Kd (HLA-B*08:01; source organism: Mycobacterium tuberculosis variant bovis BCG str. Pasteur 1173P2): ≥ 20 µM

Sequence: EIIFYHPTF
- Kd (HLA-B*15:17; [27]): 0.107 µM
- Kd (HLA-A*26:01 [14]): 0.803 µM
- Kd (HLA-A*01:01 [5]; [27]): ≥ 20 µM
- Kd (HLA-B*27:05 [6]; [27]): ≥ 20 µM
- Kd (HLA-A*11:01 [7]; [27]): ≥ 20 µM
- Kd (HLA-B*15:09): ≥ 20 µM
- Kd (HLA-B*08:02): ≥ 20 µM
- Kd (HLA-A*26:02): ≤ 0.001 µM
- Kd (HLA-B*38:01; source organism: Salmonella enterica subsp. enterica serovar Typhimurium str. LT2): ≥ 20 µM
- Kd (HLA-B*48:01; [27]): ≥ 20 µM
- Kd (HLA-B*58:01 [9]; [27]): ≥ 20 µM
- Kd (HLA-B*46:01; [27]): ≥ 20 µM
- Kd (HLA-B*40:01 [10]; [27]): ≥ 20 µM
- Kd (HLA-B*57:01; [27]): ≥ 20 µM
- Kd (HLA-A*31:01 [11]; [27]): ≥ 20 µM
- Kd (HLA-A*03:01 [12]; [27]): ≥ 20 µM
- Kd (HLA-A*02:01 [13]; [27]): ≥ 20 µM
- Kd (HLA-B*15:01 [15]; [25]): ≥ 20 µM
- Kd (HLA-A*69:01 [16]; [25]): ≥ 20 µM
- Kd (HLA-B*08:01; [25]): ≥ 20 µM

Sequence: HEWKIPLLI
- Kd (HLA-B*40:13): 0.0109 µM
- Kd (HLA-B*15:42): ≥ 5 µM
- Kd (HLA-B*83:01): 10.5 µM
- Kd (HLA-A*68:23): 0.278 µM
- Kd (HLA-B*40:01 [17]; source organism: Shigella flexneri 5 str. 8401): 0.0097 µM
- Kd (HLA-A*32:15): 2.61 µM
- Kd (HLA-B*45:06): ≥ 5 µM

- Kd (HLA-B*15:01 [15]; [28]): ≥ 20 µM
- Kd (HLA-A*69:01 [16]; [28]): ≥ 20 µM
- Kd (HLA-A*26:01 [18]): ≥ 20 µM
- Kd (HLA-A*01:01 [1]; [28]): ≥ 20 µM
- Kd (HLA-B*08:01; [28]): ≥ 20 µM
- Kd (HLA-B*27:05 [19]): ≥ 20 µM
- Kd (HLA-A*11:01 [20]): 0.015 µM
- Kd (HLA-B*18:01 [21]): ≥ 20 µM
- Kd (HLA-B*35:01): ≥ 20 µM
- Kd (HLA-B*07:02): ≥ 20 µM
- Kd (HLA-B*58:01 [22]): ≥ 20 µM
- Kd (HLA-A*24:02; [28]): ≥ 20 µM
- Kd (HLA-B*40:01 [17]; [28]): ≥ 20 µM
- Kd (HLA-A*31:01 [23]): 0.0344 µM
- Kd (HLA-A*03:01 [24]): 0.0385 µM
- Kd (HLA-A*02:01 [2]; [28]): ≥ 20 µM
Sequence: SIYAGNTPK
